Reference: paper PMC6018538, “The CYP71AZ P450 Subfamily: A Driving Factor for the Diversification of Coumarin Biosynthesis in Apiaceous Plants” (Frontiers in Plant Science, 2018)

Key:
[1] = target: CYP71AZ4 (Pastinaca sativa, UniProt A0A2Z5D854); settings: read-out: Apparent affinity (μM) / CYP71AZ4; NADPH; product xanthotoxol
[2] = test system: COc1cc2ccc(=O)oc2cc1O; test: cells, lysate or membranes; settings: NADPH; product fraxetin
[3] = test system: COc1ccc2cc(C)c(=O)oc2c1; test: cells, lysate or membranes; settings: NADPH; product 8-hydroxy-3-methyl-7-methoxycoumarin
[4] = test system: COc1ccc2ccc(=O)oc2c1; test: cells, lysate or membranes; settings: NADPH; product daphnetin 7-methyl ether
[5] = test system: COc1ccc2oc(=O)ccc2c1; test: cells, lysate or membranes; settings: NADPH; product scopoletin (P04)
[6] = substrate: O=c1ccc2cc(O)c(O)cc2o1; test: cells, lysate or membranes; settings: NADPH; product 6,7,8-trihydroxycoumarin

Sequence of CYP71AZ4 (A0A2Z5D854 whole entry): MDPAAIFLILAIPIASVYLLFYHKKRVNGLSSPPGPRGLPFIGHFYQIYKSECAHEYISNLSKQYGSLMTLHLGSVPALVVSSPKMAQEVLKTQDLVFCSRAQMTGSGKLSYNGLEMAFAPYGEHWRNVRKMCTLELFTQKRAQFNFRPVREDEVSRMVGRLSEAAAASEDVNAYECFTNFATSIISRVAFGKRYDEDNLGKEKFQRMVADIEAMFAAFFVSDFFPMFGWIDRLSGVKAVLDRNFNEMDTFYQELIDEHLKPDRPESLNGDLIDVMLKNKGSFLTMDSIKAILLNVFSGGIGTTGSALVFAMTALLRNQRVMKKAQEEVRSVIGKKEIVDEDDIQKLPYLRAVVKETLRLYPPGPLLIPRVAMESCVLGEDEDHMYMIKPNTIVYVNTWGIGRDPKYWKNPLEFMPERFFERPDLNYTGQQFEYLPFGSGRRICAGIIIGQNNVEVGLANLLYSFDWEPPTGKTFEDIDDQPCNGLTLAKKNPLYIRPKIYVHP

Molecule: O=c1ccc2cc3ccoc3cc2o1 [psoralen]
- Km [1]: 11.3 ± 2.2 µM

Molecule: CYP71AZ4 (Pastinaca sativa)
- Km [2]: 762.2 ± 586.4 µM
- Km [3]: 159.9 ± 41.1 µM
- Km [4]: 72.5 ± 15.2 µM
- Km [5]: 9.5 ± 1.5 µM

B1: CYP71AZ3 (Pastinaca sativa) (protein)
chain: MEPVFLFLILAFPIASVYLLFYHKKRVVGLSAPPGPPGLPFIGNFHQLYKASSTHEYLWSLSKQYGSLVTLRMGSVPILVVSSPKMAKEVLQTQDLIYCSRPAMTGMQKLSYNGLDVAFSPYTDQWRHTRKFCTLELFTQKRAQLNFRPVREQEVSRMIARLSETAAASKDVNAYEWFSNLATCIISRVAFGKRYDEDGIGKERFQRMLSEIDAMFIGFFVSDFFPMFGWIDKLSGMRDRLDRTFKDLDMFYQELIDEHLKPNRLESPTEDLIDVMLKNEGSSLTKDSMKAILLNVFNGGTGTTATVLAWAMTALLRNQGVMKKAQEEIRSVIGKKGKVDEDDFPSLPYLRAVVKETMRLYPPAPVLVPRETMESSIIGEDKDHMYMVKPKTVVYISMWAIGRDPKTWKNPMEFVPERFLERPDINYKGQQFEYVPFGAGRRICAGINLGVTTVELALANLLYTFDWEPPAGMRFEDIDDETTNGLALQKKNALYIRPKKYMFP
- Km [6]: 248.6 ± 51.9 µM
